Test results reported in US20250243277A1 (AVACTA LIFE SCIENCES, published 2025).

B1: Clone 43 (designed binder)
chain: MIPGGLSEAKPATPEIQEIVDKVKPQLEEKTGETYGKLEAVQYKTQVVVQHPQWHWKGTNYYIKVRAGDNKYMHLKVFKSLVQQRDVWINEDLVLTGYQVDKNKDDELTGF
notes: His-tagged
B2: Clone 78 (designed binder)
chain: MIPGGLSEAKPATPEIQEIVDKVKPQLEEKTGETYGKLEAVQYKTQVVDQGWWENWAGTNYYIKVRAGDNKYMHLKVFKSLIWENNLRIHEDLVLTGYQVDKNKDDELTGF
notes: His-tagged
B3: Clone 69 (designed binder)
chain: MIPGGLSEAKPATPEIQEIVDKVKPQLEEKTGETYGKLEAVQYKTQVVYKVDNNNYQGTNYYIKVRAGDNKYMHLKVFKSLITWQLNQPREDLVLTGYQVDKNKDDELTGF
notes: His-tagged
B4: Clone 70 (designed binder)
chain: MIPGGLSEAKPATPEIQEIVDKVKPQLEEKTGETYGKLEAVQYKTQVVIEEPSAFWWGTNYYIKVRAGDNKYMHLKVFKSLLRVRHSAYREDLVLTGYQVDKNKDDELTGF
notes: His-tagged
B5: Clone 51 (designed binder)
chain: MIPGGLSEAKPATPEIQEIVDKVKPQLEEKTGETYGKLEAVQYKTQVVSHHASPSHIGTNYYIKVRAGDNKYMHLKVFKSLTTDPNWDVHEDLVLTGYQVDKNKDDELTGF
notes: His-tagged
B6: Clone 5 (designed binder)
chain: MIPGGLSEAKPATPEIQEIVDKVKPQLEEKTGETYGKLEAVQYKTQVVFLDWKQHWRGTNYYIKVRAGDNKYMHLKVFKSLFNDKHNSTEDLVLTGYQVDKNKDDELTGF
notes: His-tagged
B7: Clone 7 (designed binder)
chain: MIPGGLSEAKPATPEIQEIVDKVKPQLEEKTGETYGKLEAVQYKTQVVRQYYEWSWVGTNYYIKVRAGDNKYMHLKVFKSLFESPTEDNDEDLVLTGYQVDKNKDDELTGF
notes: His-tagged
B8: Clone 35 (designed binder)
chain: MIPGGLSEAKPATPEIQEIVDKVKPQLEEKTGETYGKLEAVQYKTQVVKYETHFYYEGTNYYIKVRAGDNKYMHLKVFKSLPKRWAYNAYEDLVLTGYQVDKNKDDELTGF
notes: His-tagged
B9: Clone 71 (designed binder)
chain: MIPGGLSEAKPATPEIQEIVDKVKPQLEEKTGETYGKLEAVQYKTQVVASFPEISWYGTNYYIKVRAGDNKYMHLKVFKSLKNYPKTGVTEDLVLTGYQVDKNKDDELTGF
notes: His-tagged
B10: Clone 72 (designed binder)
chain: MIPGGLSEAKPATPEIQEIVDKVKPQLEEKTGETYGKLEAVQYKTQVVIHEPEIWWYGTNYYIKVRAGDNKYMHLKVFKSLHKADRQKEREDLVLTGYQVDKNKDDELTGF
notes: His-tagged
B11: Clone 73 (designed binder)
chain: MIPGGLSEAKPATPEIQEIVDKVKPQLEEKTGETYGKLEAVQYKTQVVDWGWGIPWVGTNYYIKVRAGDNKYMHLKVFKSLWLYGVKRLPEDLVLTGYQVDKNKDDELTGF
notes: His-tagged
B12: Clone 53 (designed binder)
chain: MIPGGLSEAKPATPEIQEIVDKVKPQLEEKTGETYGKLEAVQYKTQVVAWDWLPAYRGTNYYIKVRAGDNKYMHLKVFKSLFKFQNESFAEDLVLTGYQVDKNKDDELTGF
notes: His-tagged
B13: Clone 59 (designed binder)
chain: MIPGGLSEAKPATPEIQEIVDKVKPQLEEKTGETYGKLEAVQYKTQVVREPALWHFRGTNYYIKVRAGDNKYMHLKVFKSLTFKVDTWKVEDLVLTGYQVDKNKDDELTGF
notes: His-tagged
B14: Clone 6 (designed binder)
chain: MIPGGLSEAKPATPEIQEIVDKVKPQLEEKTGETYGKLEAVQYKTQVVLSEAVYIWAGTNYYIKVRAGDNKYMHLKVFKSLNSRWYGPLGEDLVLTGYQVDKNKDDELTGF
notes: His-tagged
B15: Clone 37 (designed binder)
chain: MIPGGLSEAKPATPEIQEIVDKVKPQLEEKTGETYGKLEAVQYKTQVVHHFAEVKWYGTNYYIKVRAGDNKYMHLKVFKSLKITGSTLTFEDLVLTGYQVDKNKDDELTGF
notes: His-tagged
B16: Clone 44 (designed binder)
chain: MIPGGLSEAKPATPEIQEIVDKVKPQLEEKTGETYGKLEAVQYKTQVVRTKETKKSWGTNYYIKVRAGDNKYMHLKVFKSLQKIHAIFYVEDLVLTGYQVDKNKDDELTGF
notes: His-tagged
B17: Clone 74 (designed binder)
chain: MIPGGLSEAKPATPEIQEIVDKVKPQLEEKTGETYGKLEAVQYKTQVVRRWELWSFQGTNYYIKVRAGDNKYMHLKVFKSLWQEHTDSVEEDLVLTGYQVDKNKDDELTGF
notes: His-tagged
B18: Clone 41 (designed binder)
chain: MIPGGLSEAKPATPEIQEIVDKVKPQLEEKTGETYGKLEAVQYKTQVVGTRDEWHWVGTNYYIKVRAGDNKYMHLKVFKSLFVKDDGRVDEDLVLTGYQVDKNKDDELTGF
notes: His-tagged
B19: Clone 75 (designed binder)
chain: MIPGGLSEAKPATPEIQEIVDKVKPQLEEKTGETYGKLEAVQYKTQVVINQHENFKQGTNYYIKVRAGDNKYMHLKVFKSLHLFHGLWYIEDLVLTGYQVDKNKDDELTGF
notes: His-tagged
B20: Clone 50 (designed binder)
chain: MIPGGLSEAKPATPEIQEIVDKVKPQLEEKTGETYGKLEAVQYKTQVVGRQVKWAWTGTNYYIKVRAGDNKYMHLKVFKSLFKQHHNISEEDLVLTGYQVDKNKDDELTGF
notes: His-tagged
B21: Clone 60 (designed binder)
chain: MIPGGLSEAKPATPEIQEIVDKVKPQLEEKTGETYGKLEAVQYKTQVVPQVQEPWWIGTNYYIKVRAGDNKYMHLKVFKSLYKAYIQGWNEDLVLTGYQVDKNKDDELTGF
notes: His-tagged
B22: Clone 39 (designed binder)
chain: MIPGGLSEAKPATPEIQEIVDKVKPQLEEKTGETYGKLEAVQYKTQVVEIRPVWDWSGTNYYIKVRAGDNKYMHLKVFKSLFDHESKPTAEDLVLTGYQVDKNKDDELTGF
notes: His-tagged
B23: Clone 4 (designed binder)
chain: MIPGGLSEAKPATPEIQEIVDKVKPQLEEKTGETYGKLEAVQYKTQVVFQTWDHAWTGTNYYIKVRAGDNKYMHLKVFKSLFAAETQQYYEDLVLTGYQVDKNKDDELTGF
notes: His-tagged
B24: Clone 64 (designed binder)
chain: MIPGGLSEAKPATPEIQEIVDKVKPQLEEKTGETYGKLEAVQYKTQVVIAHIHWKYFGTNYYIKVRAGDNKYMHLKVFKSLHLAKGQWREEDLVLTGYQVDKNKDDELTGF
notes: His-tagged
B25: Clone 61 (designed binder)
chain: MIPGGLSEAKPATPEIQEIVDKVKPQLEEKTGETYGKLEAVQYKTQVVPTGTHQWAAGTNYYIKVRAGDNKYMHLKVFKSLWASLESGQNEDLVLTGYQVDKNKDDELTGF
notes: His-tagged
B26: Clone 42 (designed binder)
chain: MIPGGLSEAKPATPEIQEIVDKVKPQLEEKTGETYGKLEAVQYKTQVVIQHIWWDFVGTNYYIKVRAGDNKYMHLKVFKSLSRLEPAGHQEDLVLTGYQVDKNKDDELTGF
notes: His-tagged
B27: Clone 65 (designed binder)
chain: MIPGGLSEAKPATPEIQEIVDKVKPQLEEKTGETYGKLEAVQYKTQVVDYRAIWHWWGTNYYIKVRAGDNKYMHLKVFKSLFHAEGDIWDEDLVLTGYQVDKNKDDELTGF
notes: His-tagged
B28: Clone 33 (designed binder)
chain: MIPGGLSEAKPATPEIQEIVDKVKPQLEEKTGETYGKLEAVQYKTQVVNQPQPPWIRGTNYYIKVRAGDNKYMHLKVFKSLNWNSPNLTWEDLVLTGYQVDKNKDDELTGF
notes: His-tagged
B29: Clone 57 (designed binder)
chain: MIPGGLSEAKPATPEIQEIVDKVKPQLEEKTGETYGKLEAVQYKTQVVELDGDHTWLGTNYYIKVRAGDNKYMHLKVFKSLRQLHRIWYFEDLVLTGYQVDKNKDDELTGF
notes: His-tagged
B30: Clone 45 (designed binder)
chain: MIPGGLSEAKPATPEIQEIVDKVKPQLEEKTGETYGKLEAVQYKTQVVREYPHFQGYGTNYYIKVRAGDNKYMHLKVFKSLILNAGGIRWEDLVLTGYQVDKNKDDELTGF
notes: His-tagged
B31: Clone 63 (designed binder)
chain: MIPGGLSEAKPATPEIQEIVDKVKPQLEEKTGETYGKLEAVQYKTQVVQEYEDQEWAGTNYYIKVRAGDNKYMHLKVFKSLHLWNQQIYREDLVLTGYQVDKNKDDELTGF
notes: His-tagged
B32: Clone 47 (designed binder)
chain: MIPGGLSEAKPATPEIQEIVDKVKPQLEEKTGETYGKLEAVQYKTQVVGVKQTWNWNGTNYYIKVRAGDNKYMHLKVFKSLFGLNDDEPVEDLVLTGYQVDKNKDDELTGF
notes: His-tagged
B33: Clone 76 (designed binder)
chain: MIPGGLSEAKPATPEIQEIVDKVKPQLEEKTGETYGKLEAVQYKTQVVHDFTIRYPWGTNYYIKVRAGDNKYMHLKVFKSLEYHVTKRDQEDLVLTGYQVDKNKDDELTGF
notes: His-tagged
B34: Clone 66 (designed binder)
chain: MIPGGLSEAKPATPEIQEIVDKVKPQLEEKTGETYGKLEAVQYKTQVVNLKPDVQGSGTNYYIKVRAGDNKYMHLKVFKSLIVVKRYWYVEDLVLTGYQVDKNKDDELTGF
notes: His-tagged
B35: Clone 55 (designed binder)
chain: MIPGGLSEAKPATPEIQEIVDKVKPQLEEKTGETYGKLEAVQYKTQVVAGWSLPPHLGTNYYIKVRAGDNKYMHLKVFKSLINHAGQKSDEDLVLTGYQVDKNKDDELTGF
notes: His-tagged

What follows are binders tested against T1, human PD-L1-Fc (R&D Systems) (human, UniProt Q9NZQ7 19-239) (assay: soluble Affimer ELISA).
T1 construct: Bought from R&D Systems; Biotinylated in-house for the phage selection; also called huPD-L1-Fc; human PD-L1-Fc antigen; not shown: Fc part of the bought fusion
T1 sequence (Q9NZQ7 19-239 limits assumed): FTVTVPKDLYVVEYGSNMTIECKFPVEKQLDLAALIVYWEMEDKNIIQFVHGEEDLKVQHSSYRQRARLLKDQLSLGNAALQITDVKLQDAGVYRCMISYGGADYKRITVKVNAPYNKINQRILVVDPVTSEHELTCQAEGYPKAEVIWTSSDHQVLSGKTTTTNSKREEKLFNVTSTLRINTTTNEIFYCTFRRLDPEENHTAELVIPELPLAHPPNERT

| binding result | Binder |
| --- | --- |
| binds | B1 |
| binds | B2 |
| binds | B3 |
| binds | B4 |
| binds | B5 |
| binds | B6 |
| binds | B7 |
| binds | B8 |
| binds | B9 |
| binds | B10 |
| binds | B11 |
| binds | B12 |
| binds | B13 |
| binds | B14 |
| binds | B15 |
| binds | B16 |
| binds | B17 |
| binds | B18 |

| binding result | Binder |
| --- | --- |
| binds | B19 |
| binds | B20 |
| binds | B21 |
| binds | B22 |
| binds | B23 |
| binds | B24 |
| binds | B25 |
| binds | B26 |
| binds | B27 |
| binds | B28 |
| binds | B29 |
| binds | B30 |
| binds | B31 |
| binds | B32 |
| binds | B33 |
| binds | B34 |
| binds | B35 |
